Test results: US20070196374A1 (published 2007)
Changes are numbered by the printed parent chain. Numbers in names are those of the source.

Assays:
VEGF [1] = biological target: T1, VEGF (human, UniProt P15692-4 27-191, limits assumed); assay: competition ELISA: Fab + biotinylated VEGF, then KDR-IgG plate
T1 construct: also called vascular endothelial growth factor; biotinylated VEGF
Method: Standards (6.9-440 ng/ml chimeric F(ab)) and two-fold serial of samples were incubated with 2 nM biotinylated VEGF for 1 h in tubes. The solutions from the tubes were then transferred to the ELISA plates and incubated for 1 h. […] Titration curves were fit with a four-parameter nonlinear regression curve-fitting program (KaleidaGraph, Synergy Software, Reading Pa.). […] Assays for full-length IgG were the same as for the F(ab)s except that the assay buffer contained 10% human serum.

VEGF121 [2] = biological target: T2, VEGF121 (human, UniProt P15692 27-147); assay: BIAcore SPR, VEGF121 on chip, Fab in flow
T2 construct: mature; also called Purified VEGF121
T2 sequence (looked up): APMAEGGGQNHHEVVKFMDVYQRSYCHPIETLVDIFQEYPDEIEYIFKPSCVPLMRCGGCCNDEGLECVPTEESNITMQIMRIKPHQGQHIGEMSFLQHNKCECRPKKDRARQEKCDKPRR
Method: (§1) VEGF₁₂₁ was covalently immobilized on the biosensor chip via primary amino groups. Binding of humanized A4.6.1 Fab variants was measured by flowing solutions of Fab in PBS/0.05% TWEEN 20™ over the chip at a flow rate of 20 μL/min. Following each binding measurement, residual Fab was stripped from the immobilized ligand by washing with 5 μL of 50 mM aqueous HCl at 3 μL/min. Binding profiles were analyzed by nonlinear regression using a simple monovalent binding model (BIAevaluation software v2.0; Pharmacia).

VEGF121 [3] = biological target: T2, VEGF121; assay: BIAcore SPR, VEGF121 on chip
Method: as §1

VEGF [4] = biological target: T1, VEGF; assay: BIAcore-2000 SPR, wt = Y0192
Method: (§2) The VEGF-binding affinities of Fab fragments were calculated from association and dissociation rate constants measured using a BIAcore-2000™ surface plasmon resonance system (BIAcore, Inc., Piscataway, N.J.). A biosensor chip was activated for covalent coupling of VEGF using N-ethyl-N′-(3-dimethylaminopropyl)-carbodiimide hydrochloride (EDC) and N-hydroxysuccinimide (NHS) according to the supplier's (BIAcore, Inc., Piscataway, N.J.) instructions. VEGF was buffered exchanged into 20 mM sodium acetate, pH 4.8 and diluted toapproximately 50 μg/mL. An aliquot (35 μL) was injected at a flow rate of 2 μL/min to achieve approximately 700-1400 response units (RU) of coupled protein. Finally, 1 M ethanolamine was injected as a blocking agent.
(§3) For kinetics measurements, two-fold serial dilutions of Fab were injected in PBS/TWEEN™ buffer (0.05% TWEEN 20™ in phosphate buffered saline) at 25° C. at a flow rate of 10 μL/min. […] Equilibrium dissociation constants, Kd's from surface plasmon resonance (SPR) measurements were calculated as koff/kon.

rhVEGF165 = rhVEGF165 (human, UniProt P15692 27-191); assay: cell-based or functional assay
VEGF [5] = biological target: T1, VEGF; assay: BIAcore-2000 SPR
Method: as §2, §3

B1: F(ab)-1 (Fab, V domains shown)
VH: EVQLVESGGGLVQPGGSLRLSCAASGYTFTNYGMNWVRQAPGKGLEWVGWINTYTGEPTYAADFKRRFTISRDNSKNTLYLQMNSLRAEDTAVYYCARYPHYYGSSHWYFDVWGQGTLVTVSS
VL: DIQMTQSPSSLSASVGDRVTITCSASQDISNYLNWYQQKPGKAPKLLIYFTSSLHSGVPSRFSGSGSGTDFTLTISSLQPEDFATYYCQQYSTVPWTFGQGTKVEIK
Q: How did the fold reduction of binding affinity against chimeric F(ab) (VEGF [1]) turn out when B1 was run?
A: > 1000 fold

B2: F(ab)-8 (Fab, V domains shown)
VH: B1 VH with I70F, R72L, N74T, L79A
VL: B1 VL with L46V
notes: F(ab)-5 with IleH69Phe and LeuH78Ala; Human CH1 and CL
Q: With B2 as the binder, how does the “fold improvement of binding against F(ab)-5” value (“fold improvement of binding” below) (VEGF [1]) read?
A: 8 fold

B3: hu2.10 (Fab, V domains shown)
VH: B1 VH with V37I, R72L, N74T, K76A, N77S, L79V, R98K
VL: B1 VL with F71Y
notes: Phage-selected consensus clone, soluble Fab with human constant domains; also called consensus clone hu2.10
Q: With B3 as the binder, how does the “KD(A4.6.1)/KD(mut) as headed (values run as KD(mut)/KD(A4.6.1))” value (VEGF121 [2]) read?
A: 35 ratio

Q: What about the “fold tighter KD against hu2.0” value (VEGF121 [3]) of the same binder?
A: ≥ 125 fold

B4: F(ab)-5 (Fab, V domains shown)
VH: B1 VH with R72L, N74T
VL: B1 VL with L46V
notes: Human CH1 and CL
Q: For B4, which “fold increase of binding affinity against F(ab)-4” value (VEGF [1]) is on record?
A: ~4 fold

B5: F(ab)-6 (Fab, V domains shown)
VH: B1 VH with R72L, N74T, L79A
VL: B1 VL with L46V
notes: F(ab)-5 with LeuH78Ala; Human CH1 and CL
Q: With B5 as the binder, how does the “fold improvement of binding” value (VEGF [1]) read?
A: 2 fold

B6: F(ab)-9 (Fab, V domains shown)
VH: B1 VH with G49A, I70F, R72L, N74T, L79A
VL: B1 VL with L46V
notes: F(ab)-8 with GlyH49Ala; Human CH1 and CL
Q: For B6, which “fold reduction of binding against F(ab)-8” value (VEGF [1]) is on record?
A: 15 fold

B7: hu2.10V (Fab, V domains shown)
VH: B1 VH with V37I, R72L, N74T, K76A, N77S, L79V, R98K
VL: B1 VL with L46V, F71Y
notes: hu2.10 with the Leu->Val change at VL 46; Fab
Q: Which results are given for B7?
A: KD(A4.6.1)/KD(mut) as headed (values run as KD(mut)/KD(A4.6.1)) (VEGF121 [2]): 5.8 ratio; fold improvement in KD against hu2.10 (VEGF121 [3]): 6 fold

B8: F(ab)-7 (Fab, V domains shown)
VH: B1 VH with I70F, R72L, N74T
VL: B1 VL with L46V
notes: F(ab)-5 with IleH69Phe; Human CH1 and CL
Q: B8 was tested. Which “fold improvement of binding” value (VEGF [1]) did it give?
A: 2 fold

B9: chimeric F(ab) (Fab, V domains shown)
VH: EIQLVQSGPELKQPGETVRISCKASGYTFTNYGMNWVKQAPGKGLKWMGWINTYTGEPTYAADFKRRFTFSLETSASTAYLQISNLKNDDTATYFCAKYPHYYGSSHWYFDVWGAGTTVTVSS
VL: DIQMTQTTSSLSASLGDRVIISCSASQDISNYLNWYQQKPDGTVKVLIYFTSSLHSGVPSRFSGSGSGTDYSLTISNLEPEDIATYYCQQYSTVPWTFGGGTKLEIKR
notes: Murine A4.6.1 VH fused to human CH1 at SerH113 and murine VL fused to human CL at LysL107; also called chim-F(ab); A4.6.1 chimera
Q: How did the EC50 (VEGF [1]) turn out when B9 was run?
A: 49 µg/mL

B10: Y0238-1 (Fab, V domains shown)
VH: EVQLVESGGGLVQPGGSLRLSCAASGYTFTNYGINWVRQAPGKGLEWVGWINTYTGEPTYAADFKRRFTFSLDTSKSTAYLQMNSLRAEDTAVYYCAKYPYYRGTSHWYFDVWGQGTL
VL: DIQLTQSPSSLSASVGDRVTITCRANEQLSNYLNWYQQKPGKAPKVLIYFTSSLHSGVPSRFSGSGSGTDFTLTISSLQPEDFATYYCQQYSTVPWTFGQGTKVEIKR
notes: Clone of library YC-81 on the pY0192 template; Soluble Fab
Q: For B10, which “Kd (wt)/Kd” value (VEGF [4]) is on record?
A: 7.3 ratio

B11: Y0313-3 (Fab, V domains shown)
VH: B10 VH with R103Y, T105S
VL: B10 VL
notes: Reversion mutant of Y0238-3 (VH3 T105S); soluble Fab
Q: B11 was tested. Which “Kd (wt)/Kd” value (VEGF [4]) did it give?
A: 4.5 ratio

B12: Y0244-4 (Fab, V domains shown)
VH: B10 VH with L72I, T74K, Y101H, R103Y, T105S
VL: B10 VL
notes: Soluble Fab
Q: For B12, which “Kd (wt)/Kd” value (VEGF [4]) is on record?
A: 0.9 ratio

B13: Y0243-1 (Fab, V domains shown)
VH: B10 VH with T28D, N31H, I34M, Y101H, R103Y, T105S
VL: B10 VL
notes: Soluble Fab from E. coli 34B8
Q: For B13, which “Kd (wt)/Kd” value (VEGF [4]) is on record?
A: 4.1 ratio

B14: Y0244-1 (Fab, V domains shown)
VH: B10 VH with L72V, T74V, Y101H, R103Y, T105S
VL: B10 VL
notes: Soluble Fab
Q: How did the “Kd (wt)/Kd” value (VEGF [4]) turn out when B14 was run?
A: 3.6 ratio

B15: Y0238-5 (Fab, V domains shown)
VH: B10 VH with R103I, G104A, T105K
VL: B10 VL
notes: as for B10
Q: Which “Kd (wt)/Kd” value (VEGF [4]) does the source give for B15 here?
A: 3.2 ratio

B16: Y0238-7 (Fab, V domains shown)
VH: B10 VH with R103W
VL: B10 VL
notes: as for B10
Q: Which “Kd (wt)/Kd” value (VEGF [4]) does the source give for B16 here?
A: ≥ 7.3 ratio

B17: Y0313-1 (Fab, V domains shown)
VH: B10 VH with T28D, N31H, I34M, R103Y
VL: B10 VL
notes: Y0243-1 with VH3 H101Y and S105T; soluble Fab
Q: For B17, which “Kd (wt)/Kd” value (VEGF [4]) is on record?
A: ≥ 20 ratio

Q: What about the “potency in the HuVEC assay relative to the wild-type Fab (Y0192)” value (rhVEGF165) of the same binder?
A: > 30 fold

B18: Y0238-3 (Fab, V domains shown)
VH: B10 VH with R103Y
VL: B10 VL
notes: Soluble Fab from E. coli 34B8
Q: With B18 as the binder, how does the Kd (VEGF [5]) read?
A: 0.15 nM

Q: And the “Kd (wt)/Kd” value (VEGF [4])?
A: ≥ 14 ratio

B19: Y0238-10 (Fab, V domains shown)
VH: B10 VH with G104N
VL: B10 VL
notes: as for B10
Q: B19 was tested. Which “Kd (wt)/Kd” value (VEGF [4]) did it give?
A: 4.8 ratio
